How the values were obtained:
[1] = target: hCD1d/β-2-microglobulin refolded with α-GalCer 1 (human) (UniProt P15813); assay: SPR (BIAcore); calculated from experimental koff and Kd
[2] = target: hCD1d/β-2-microglobulin refolded with ThrCer thioamide 9 (human) (UniProt P15813); assay: as above
[3] = target: hCD1d/β-2-microglobulin refolded with ThrCer 2 (human) (UniProt P15813); assay: as above
[4] = target: hCD1d/β-2-microglobulin refolded with ThrCer carbamate 11 (human) (UniProt P15813); assay: as above
[5] = target: hCD1d/β-2-microglobulin refolded with α-GalCer thioamide 6 (human) (UniProt P15813); assay: as above
[6] = target: hCD1d/β-2-microglobulin refolded with α-GalCer carbamate 8 (human) (UniProt P15813); assay: as above
[7] = target: hCD1d/β-2-microglobulin refolded with α-GalCer 1 (human) (UniProt P15813); assay: SPR (BIAcore), equilibrium binding; TCR injected over immobilised biotinylated hCD1d-lipid
[8] = target: hCD1d/β-2-microglobulin refolded with ThrCer thioamide 9 (human) (UniProt P15813); assay: as above
[9] = target: hCD1d/β-2-microglobulin refolded with ThrCer 2 (human) (UniProt P15813); assay: as above
[10] = target: hCD1d/β-2-microglobulin refolded with ThrCer carbamate 11 (human) (UniProt P15813); assay: as above
[11] = target: hCD1d/β-2-microglobulin refolded with α-GalCer thioamide 6 (human) (UniProt P15813); assay: as above
[12] = target: hCD1d/β-2-microglobulin refolded with α-GalCer carbamate 8 (human) (UniProt P15813); assay: as above
[13] = target: hCD1d/β-2-microglobulin refolded with α-GalCer 1 (human) (UniProt P15813); assay: SPR (BIAcore), kinetics; TCR injected over immobilised biotinylated hCD1d-lipid
[14] = target: hCD1d/β-2-microglobulin refolded with ThrCer thioamide 9 (human) (UniProt P15813); assay: as above
[15] = target: hCD1d/β-2-microglobulin refolded with ThrCer 2 (human) (UniProt P15813); assay: as above
[16] = target: hCD1d/β-2-microglobulin refolded with ThrCer carbamate 11 (human) (UniProt P15813); assay: as above
[17] = target: hCD1d/β-2-microglobulin refolded with α-GalCer thioamide 6 (human) (UniProt P15813); assay: as above
[18] = target: hCD1d/β-2-microglobulin refolded with α-GalCer carbamate 8 (human) (UniProt P15813); assay: as above

kon [1]: 258000 M⁻¹ s⁻¹
kon [2]: 520000 M⁻¹ s⁻¹
kon [3]: 258000 M⁻¹ s⁻¹
kon [4]: 259000 M⁻¹ s⁻¹
kon [5]: 128000 M⁻¹ s⁻¹
kon [6]: 534000 M⁻¹ s⁻¹
Kd [7]: 2.19 µM
Kd [8]: 36.1 µM
Kd [9]: 4.57 µM
Kd [10]: 4.6 µM
Kd [11]: 4.2 µM
Kd [12]: 1.72 µM
koff [13]: 0.565 s⁻¹
koff [14]: 1.88 s⁻¹
koff [15]: 1.18 s⁻¹
koff [16]: 1.19 s⁻¹
koff [17]: 0.537 s⁻¹
koff [18]: 0.919 s⁻¹
Substance: soluble human iNKT cell T cell receptor (Vα24/Vβ11 heterodimer) (TCR)
